Ends that are not written are not given here.
Tests used:
human ACE2 [1] = molecular target: T1, human ACE2 (human, UniProt Q9BYF1); test: SPR, 37C
human ACE2 [2] = molecular target: T1, human ACE2; test: SPR, 37C; remark: listed apart in the source
human ACE2 [3] = molecular target: T1, human ACE2; test: SPR
human ACE2 [4] = molecular target: T1, human ACE2; test: SPR; given as Ka

T1 sequence (Q9BYF1 18-740): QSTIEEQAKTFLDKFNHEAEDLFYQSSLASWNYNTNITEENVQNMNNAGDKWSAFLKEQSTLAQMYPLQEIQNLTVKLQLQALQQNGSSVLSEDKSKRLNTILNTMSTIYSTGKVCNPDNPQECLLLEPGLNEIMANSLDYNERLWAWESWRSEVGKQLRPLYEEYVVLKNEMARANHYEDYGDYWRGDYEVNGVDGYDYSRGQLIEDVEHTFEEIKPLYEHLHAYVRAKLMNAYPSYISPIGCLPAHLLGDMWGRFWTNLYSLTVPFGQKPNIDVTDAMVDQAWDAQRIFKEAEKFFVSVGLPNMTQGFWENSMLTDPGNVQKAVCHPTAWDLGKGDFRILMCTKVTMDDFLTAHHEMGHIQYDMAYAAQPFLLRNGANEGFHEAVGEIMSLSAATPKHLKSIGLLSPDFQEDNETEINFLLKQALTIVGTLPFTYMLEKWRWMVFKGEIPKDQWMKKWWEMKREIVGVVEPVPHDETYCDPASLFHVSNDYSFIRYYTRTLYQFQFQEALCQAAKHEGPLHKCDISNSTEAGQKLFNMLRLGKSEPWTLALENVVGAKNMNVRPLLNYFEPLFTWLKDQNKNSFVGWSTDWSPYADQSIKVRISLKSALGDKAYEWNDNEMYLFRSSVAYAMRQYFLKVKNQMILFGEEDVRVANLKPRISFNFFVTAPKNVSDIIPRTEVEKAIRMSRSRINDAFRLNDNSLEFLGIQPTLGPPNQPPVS

Row | Kd (human ACE2 [1]) [µM] | Kd (human ACE2 [2]) [µM] | Kd (human ACE2 [3]) [µM] | Kd (human ACE2 [4]) [µM] | Binder
1 | 4.37 | 4.37 | – | – | FPIPLPYYWLYRALIKRIQALIPKGGRLLPQLVYRLVLRYS (also: biotinylated (site not given here)) [B-YL (biotinylated)]
2 | – | – | 0.00987 | 0.0099 | FPIPLPYCWLCRALIKRIQAMIPKGGRMLPQLVCRLVLRCS [Super Mini-B (SMB)]

Reference: US20260345742 (published 2026)
